Laboratory results as given in the DeepSol protein solubility set.

Experiment: soluble on expression in E. coli; label from the status in PepcDB or PDB records

Q: Which “soluble on expression in E. coli” value does the source give for “MSLSREPQTYLAQRFDPDALGQPALALQLEARHNDTEVPVHRHRKGQLVVACRGGITCTVPDGLWMVPAGFGVWIPGGIAHSNRVTANGKVCFLFVEPGAARLPSDCCTLALSPLVLELILHLSAQPQDYPHDGPLARLAGVLLELLEQAPTEQLYLPLPDNRGLRRIADELTRAPGDRASMAEWARRVAMSERSLARMVRRETGMTFGQWRQQLQIIIALQQLSAGVSVQRTAEILGYESVSSFIGMFRKALGSPPARYVRDSMEGGSHHHHHH” here?
A: The value was “soluble”.

Q: For “MGSDKIHHHHHHMVKPDHGRKRQIELTEIGERIYQHAVELLQAEQNIFLEIENYQQLKTGTLKLGVPPLGSQLLTTALFDFHRQWPDIELAFMEVGSRGIEQALLNNELDVGVLLQPFDEQTFNSIELCNYPLMVLLRRDATWATRKKINLEELQHQSFLMFPENFSLNSIILDACKQYGFYPTIACRTSQWHLLADMVLQRMGIALLPQYYTDMLDPTLFAAVPLEKPNIQWHLVMAWKKNLPASPAVQAWLSIVRQHFQHIKP”, which “soluble on expression in E. coli” value is on record?
A: The value was “not soluble”.

Q: For “MMEIRLTELKDLPLVMEIYDYARAFMRANGNATQWIDGYPSESFIRQEIEDGHSFVCTDEQGEILGTFCFILGEDPTYLNIYEGAWLNDEPYGVIHRMATSGKRKGVSEACLNWCFEHFENIRVDTHRDNKVMQHILAKYGFQRCGIIYVKNGTERIAYQRIL”, which “soluble on expression in E. coli” value is on record?
A: The value was “not soluble”.

Q: For “MGSDKIHHHHHHMIVGGLWMHLNEGSTPMDKYIEITAQKSRMYLLPDSSKVWMQPGSSIRFAEDFKKHRNVWLKGNSLFEVHKNMGRKFRVYIDKAFIEVKGTCFLIKQNNPSANEITLFNGSIEFNVESTQHKIEMKPLQELVYNPADAGTQLRQIENIEWQNGRYNFTQFNLEHLTRIINQMYGSRIIISDKVNKNCAFTGSIRYDESLEDVIDKICFSLNLRKKEINHEIIIYN”, which “soluble on expression in E. coli” value is on record?
A: The value was “not soluble”.

Q: For “MPNVVGVQFQKAGKLEYYAPNQLDVEVGDWVVVQSKRGIEIGHVKFPLREVDVEDVTLPLKNIIRKMNEDDQETYYRNERDANDALELCKKVVKDQQLDMRLVNCEYTLDKSKVIFNFTADDRIDFRKLVKVLAQNLKTRIELRQIGVRDEAKLLGGIGPCGRSLCCSTFLGDFEPVSIKMAKDQNLSLNPTKISGACGRLMCCLKYENDYYEEARTQLPDVGDMIQTPDGHGKVIGLNILDISMQVKIEGLEQPLEYKMEEIEVLNLEHHHHHH”, which “soluble on expression in E. coli” value is on record?
A: Its value is “not soluble”.

Q: With “MQNKIVKIGNIDVANDKPFVLFGGMNVLESRDMAMQVCEAYVKVTEKLGVPYVFKASFDKANRSSIHSYRGPGMEEGLKIFQELKDTFGVKIITDVHEIYQCQPVADVVDIIQLPAFLARQTDLVEAMAKTGAVINVKKPQFLSPSQMGNIVEKIEECGNDKIILCDRGTNFGYDNLIVDMLGFSVMKKASKGSPVIFDVTHSLQCRDPFGAASSGRRAQVTELARSGLAVGIAGLFLEAHPNPNQAKCDGPSALPLSALEGFVSQMKAIDDLVKSFPELDTSIGSHHHHHH” as the sequence, how does the “soluble on expression in E. coli” value read?
A: Its value is “soluble”.

Q: Which “soluble on expression in E. coli” value does the source give for “MTVDSPILTDTLVVGGGQAGIAMSEHLTGQGVPHIVLERDRIAQRWRTGRWDSLVANGPAWHDRFPGLEFEGLDPDGFASKDAVADYLEAYARKFNAPIRTGVEVVRAERNGGRYGFTVETSAGTYEAQRIVVATGPFQRPVIPAIAPRDPALTQIHSADYRNPGQLPEGAVLVIGAGSSGVQIADELQRAGREVYLSVGPHDRPPRRYRGRDFCWWLGVLGLWDQETVQPGREHVTIAVSGTDGGRTIEFRALAHQGITLVGVTKSFRDGVVAFENDLAENVARGDANHFALLDAADAYIARNGLSLPDEPQARRVPPDPACMTEPILQLDLAAANVTSIIWATGYAAEYGWLNVDAFDANGKPRHQRGVSSEPGVYFLGLPWLSRRGSAFLWGVWHDAKHIAGHIAMQRNYLSYPDFGQSQQLEHHHHHH” here?
A: The value was “soluble”.

Q: Which “soluble on expression in E. coli” value does the source give for “MSSAATPPPMEHTSSEDSTTAPLQTPSSSSCLDVTVAVGTSVSYLKASPLVSSPTSLVVDITESSSTLLYDKIKALPCEPVVTEVDTSTLRKETLNQIDGLLGPSPEALELRQLLNSPHLASCVQALDVVVCEIRDPKNEASGSGDKEGNCVSSDPAPAYLNGGVLPLGAQRAGTSFEHFNQSAVHTSYDEEEEELYDCMSRLRLVQFQKDTQEPMGITLKVNEDGRCFVARIMHGGMIHRQATLHVGDEIREINGMSVANRSVESLQEMLRDARGQVTFKIIPSYRSAPPACEIFVRAQFDYEPSQDDLIPCPQAGIPFKTGDILQVISKDDHNWWQARFVSSFPSIGNSSNAQRSNQQQVAGLIPSPELQEWRTACLAMERSKNTCNTHCMWFNKKKKYYTTKYLQKHSALFDQLDLVTYEEVMRLSQYRRKTLVLLGAHGVGRRHIKNTLIHRHPNRFAYPIPHTTRPPRKDEVDGKHYYFVTNEQMMADIQNNEYLEYGTHEESMYGTKLETIRNIHKSGKIAILDVEPQALKVLRTAEYSPFVVFIAAPNLQGMQDPDGSLEKLLNESDVLRQAFGHLFDFIITNSDIDDTIAQLERLVEKLPAYPQWLPVTWVY” here?
A: The value was “not soluble”.

Q: For “MIGELVKDKILIKNIEDARLIYKMGYYGKPIGISKPKSAEEINSELILSLIEGVYLVKKGKLEIVSNGERLDFERLYQIGVTQIPRFRILYSVYEDLREKGYVVRSGIKYGADFAVYTIGPGIEHAPYLVIALDENSQISSNEILGFGRVSHSTRKELILGIVNLTNGKIRYIMFKWLKM”, which “soluble on expression in E. coli” value is on record?
A: The value was “soluble”.

Q: With “MSLPNEQPGTGPADTTLEQQDTAAAEVGHPRRIRSFVRRAGRTSTGQQRAIDELGPRFLLPYAAAPLDWEAAFGRTGARRIFEIGFGMGETSAHIAQLRPDDDFLGVEVHEPGVGALLKLIGERGIGNVRIVSHDAVEVLAQMIPEGTLDGIHVFFPDPWHKKRHNKRRLIQGPFVARLAAHLRPGGYLHCATDWEEYAHQMLEVLSAEPLLENTADGFAPRPDYRPVTKFEKRGLRLGHGVWDVVFRKREGHHHHHH” as the sequence, how does the “soluble on expression in E. coli” value read?
A: Its value is “not soluble”.

Q: Which “soluble on expression in E. coli” value does the source give for “MGSDKIHHHHHHMNQRMKSHFQYSTLENIPKAFDILKDPPKKLYCVGDTKLLDTPLKVAIIGTRRPTPYSKQHTITLARELAKNGAVIVSGGALGVDIIAQENALPKTIMLSPCSLDFIYPTNNHKVIQEIAQNGLILSEYEKDFMPIKGSFLARNRLVIALSDVVIIPQADLKSGSMSSARLAQKYQKPLFVLPQRLNESDGTNELLEKGQAQGIFNIQNFINTLLKDYHLKEMPEMEDEFLEYCAKNPSYEEAYLKFGDKLLEYELLGKIKRINHIVVLA” here?
A: Its value is “not soluble”.

Q: Which “soluble on expression in E. coli” value does the source give for “SGRPVAELLRKIHTSKALLDMLKRLGKEPLNPGALLSQLKQAVFAVQQSSPLIQEGIKYLEEHLHEVHFGEKVVCHCDVNHNNWLLSEDNQLYLIDWDGAMIADPAMDLGPLLYHYVEKPAWESWLSMYGIELTESLRLRMAWYVLSETITFIAWHKAKGNDKE” here?
A: The value was “not soluble”.

Q: For “MCLIVFAWRPGHAQPLIVAANRDEFYARPSLPLGQWPELPQIHAGRDLEAGGTWLGVGAEGRFAALTNIRNPHQPPARRSRGELVARFLAGDVPLDDYLRDVVGRSVEYAGFNLLLGNAEQLWHYNARDPQPQRLEPGVYGLSNAGLDTPWPKLLKARAALQEVLHDPQPQALLALLSDPQTAPFADLPDTGVGLATESLLSSVFIASPSYGTRASTALIVHADGSRHLLERSFGPYGGHLGEVELKVLEHHHHHH”, which “soluble on expression in E. coli” value is on record?
A: The value was “not soluble”.

Q: Which “soluble on expression in E. coli” value does the source give for “MKHQHQHQHQHQHQMHQTEDYCLASNKVGRCRGSFPRWYYDPTEQICKSFVYGGCLGNKNNYLREEECILACRGV” here?
A: The value was “soluble”.

Q: With “MGSDKIHHHHHHMAESKIAERAFYQPGASSIEGMPTTLQLFHNHPPIMLRPHWHAQVEVNYVMSGSVHYRMGDHDLTLNAGQMCIFWGGQPHQMDRSSDDSFYAGAHLPLVHFFRMRLPAAISSQLMDGATMVSGETDRADAENFGRWFRYVTSGDPAKAQHAVEELLLRVERMFLEPYSVISSADHGKRKEDDEGMAPSIGVVRMCDFIAANFLDDIDAADIARAASLHPKYAMNLFRKSTGMTLIKYLTLLRLSRAQAMLMTGKDNILQIAMESGFGSVSAFNKAFRQISGMSPSDFRRDMRAAAA” as the sequence, how does the “soluble on expression in E. coli” value read?
A: The value was “not soluble”.

Q: With “GSYAEGQKKRRNTLHEFKKSAKTTLTKEDPLLKIKTKKVNSADECANRCIRNRGFTFTCKAFVFDKSRKRCYWYPFNSMSSGVKKGFGHEFDLYENKDYIRNCIIGKGGSYKGTVSITKSGIKCQPWNSMIPHEHSFLPSSYRGKDLQENYCRNPRGEEGGPWCFTSNPEVRYEVCDIPQCSEV” as the sequence, how does the “soluble on expression in E. coli” value read?
A: The value was “soluble”.

Q: Which “soluble on expression in E. coli” value does the source give for “MGSDKIHHHHHHMQFVFDIDGTICFDRFQIDARIKAILKDAANYGHQISFASARSYRDCIDVLGQELSQKTVIGLNGGLAYKAGELILEKPMNHRAFDLALYYCHRYQLPYFVDDDFNYAHHLEQFIPFIHSVDPLKLAKEVGVEDLKHPIKMVVFFGNHLDKIAEVSHHLAKLEQLDITFHDDESCLYLNPKEVTKSSTIQELFDHDFVAFGNDRNDIAMFQAAVYSVQVGDFADLSPFADTQVLLRQDYHQAVADKIHETFEKFRA” here?
A: The value was “not soluble”.

Q: Which “soluble on expression in E. coli” value does the source give for “MGSDKIHHHHHHMTLLIVGATGTLGRQVARRAIDEGYKVRCLVRSSKKAAFLKEWGAELVPGNLRYPDTLAAALVGVTQVIDASTSRPTDSLSIKQVDWEGKVALIQAAKAAGVERFIFFSILDADKYPEVPLMEIKRCTELFLAESGLNYTILRLAGFMQGLIGQYGIPILEGQPVWVTGNSSPIAYMDTQDIAKFAIRALSVPETENQAFPVVGTRAWSAEEIINLCERLSGKDARVTRMPISLLRAVRGLMRSFQWGWNVADRLAFTEVLASGKQLNASMDEVYTVFGLDPQQTTTLESYLQEYFSRIMKKLKEVDYQKNKNKKQKPKKTPFKQSSKANSQ” here?
A: The value was “not soluble”.

Q: Which “soluble on expression in E. coli” value does the source give for “MGHHHHHHGGHMSLIISSLTNPNFKVGLPKVIAEVCDYLNTLDLNALENGRHDINDQIYMNVMEPETAEPSSKKAELHHEYLDVQVLIRGTENIEVGATYPNLSKYEDYNEADDYQLCADIDDKFTVTMKPKMFAVFYPYEPHKPCCVVNGKTEKIKKLVVKVPVKLIEGGS” here?
A: The value was “soluble”.

Q: Which “soluble on expression in E. coli” value does the source give for “MSLDGKVAVLTGTKKIEVKKLPVPEINDDEMLVKVEGCGVCGTDVFEYKSDPFNYIPVNLGHEGTGEIVKMGKNVKNDWTGKTLKIGDKIVCGPAANGDIYGLMGGEKHYFNGWLANYMVINPNSVVFNVSDMPLDLRILIEPAAVSCHAVAKSKEIYTFKHSSSVVVQGVGPIGLMVIAQMKTLGVRHIIAVDGNASRLELAKKIGATATVNIDDGDSVAAVKELTDGKGANFVFQCTGSTKGASTAWKFLTDHGGICEVGFFVDNGEATYNPHFDVCMPETKITGSWAYVPEDWVEATEFLRETKDEGLDMTQLITNVYPLDQMNEAMAKNMSGTGVKIVYKNNEGHHHHHH” here?
A: Its value is “soluble”.

Q: For “MGGSHHHHHHGMASGKSDFLTPKAIANRIKSKGLQKLRWYCQMCQKQCRDENGFKCHCMSESHQRQLLLASENPQQFMDYFSEEFRNDFLELLRRRFGTKRVHNNIVYNEYISHREHIHMNATQWETLTDFTKWLGREGLCKVDETPKGWYIQYIDRDPETIRRQLELEKKKKQDLDDEEKTAKFIEEQVRRGLEGKEQEVPTFTELSRENDEEKVTFNLSKGACSSSGATSSKSSTLGPSALKTIGSSASVKRKESSQSSTQSKEKKKKKSALDEIMEIEEEKKRTARTDYWLQPEIIVKIITKKLGEKYHKKKAIVKEVIDKYTAVVKMIDSGDKLKLDQTHLETVIPAPGKRILVLNGGYRGNEGTLESINEKTFSATIVIETGPLKGRRVEGIQYEDISKLA”, which “soluble on expression in E. coli” value is on record?
A: The value was “not soluble”.

Q: Which “soluble on expression in E. coli” value does the source give for “MCGRFVITSAPAAIRQLFGYADQPNFPSRYNIAPTQPVPVVIVDEGARRFRLMRWGLIPSWVKDPRMFSLLINARADTIQDKPAFRNAFRRRRCLVPADGYYEWKAGGSRKQPYFIHPAGGGPIGFAALWETWTGPNGEELDTVAIVTTAARGGLADLHDRVPVTIAPHHFARWLETDETDTEAVMALLGPPGEGEFVWHPVSTAVNRTANDNPQLILPIAAEEVEAPPPAVAKPAPPKRAARPKISADDSGQGSLFLEHHHHHH” here?
A: The value was “soluble”.
